From publication PMC7110144, “Structural basis for centromere maintenance by Drosophila CENP‐A chaperone CAL1” (The EMBO Journal, 2020)
Positions count from the first letter of the chain named. Names and notes keep the numbering of the source.

B1: CENP-A(144-225) (domain or fragment, Drosophila melanogaster, UniProt Q9V6Q2 144-225, looked up)
chain: PGTLIPKLPFSRLVREFIVKYSDDEPLRVTEGALLAMQESCEMYLTQRLADSYMLTKHRNRVTLEVRDMALMAYICDRGRQF
B2: CAL1(F43R)-V5 (in U2OS cells) (natural protein, Drosophila melanogaster, UniProt Q9VEN2 1-979, looked up)
chain: MANAVVDEETLEAMVYERSKAWSSKMADFASLEDGMEIDVAERDNLFHGEDEDPDLDDVAKEAVEDNVPDEAKLEMGHINATSVTELTLILCANEDNEAKAEIEEILNQTVPVVEEHKRKWREAGLDRILDTFDEKQIEHHVGRWMRRHNSVYLEASPPKYLPPHHNSISDESDESMHSIDTARYIQQSRRRNAHMTNKNMTTIKMYRKHSHKRDELRAKYAYGDEQEHRHHMQAVLLRRRERERQLAYLASTPMQCVYSSGHHMRRKNLRKRRINSWMFDSASSSEEDTSFGGCDCHSCRRHYALSRSVYQSCPYGRGQREYHHRQMASRTMHTMRRQHTFDMEMDLRPRLPENECSCCNSDRLCSNVIHIANSSTEEWVVENRSNHLTQETQEKTRKQKHQPMDARKVSHQPVCSKGHEQKPLSSKATSVSKLVLSKEKYMQMFDSESSDEDNALAKKGLLCCSDKKKGMTFPTPNAAGKITHPTSSAKKAIRKEARPNGLAQIQEEGPTATNSPIESTYLPVAHMKSVSIDGSSGTSATFESPAKKAPKRGIRETSPLNGNELQQLISTIPIADEKASSLMEKVDNCIGRESFDDRNKDFMHMENSSTKTAVEKSTKQKRVSGKKSEIPKSIITNNEILEKNSTETLSEKQVAAKAKKQSVRKTGATGKPSTSRLKKSEKTKTTSSVTSTSKLEQVREEESDVSSEVLAKPKPQCSTTASILKQGGDGASNSEDDLQIALAMSKATYKEEQQKRKKTKREPSNKQPQSPAEKSMTVFNNQSVACNSTALANDTACYRVLPKRRGVKRAAAVSTTEEKTATNSSSSPTSSLEEMGSPTGGDPDCTVVTSTTGCEPPASERQEIPATIKITKRGILLHSPSAPEGASFTLTEQGLGKIIGERWARKYLKYHIGSRSFDSRHSVYYQPTPQLAAALSAPQDAQNIGNISGSSASDDDIFEQINRYGTVYSILENNSGDK
notes: CAL1, Drosophila melanogaster; non-codon-optimised; source: U2OS cells with a LacO array, transfected, in cells; not shown: V5, C-terminal, kept
B3: CENP-C(1264-1411) (domain or fragment, Drosophila melanogaster, UniProt Q9VHP9 1264-1411, looked up)
chain: GPVVFSTPLRDEQEEASTKLMQWLRGVGDAPPSASMSDENASVSSANELIFCQVDGIDYAFYNTKEKAMLGYMRFKPYQKRSMKQAKVHPLKLLVQFGEFNVETLAVGEEKEVHSVLRVGDMIEIDRGTRYSIQNAIDKVSVLMCIRS
notes: also called CENP-C cupin domain; source: E. coli Rosetta (DE3), purified; tag removed with 3C, SEC; not shown: His, N-terminal, cleaved
B4: His-CENP-C(1264-1411) (domain or fragment)
chain: B3 chain
notes: vector pEC-K-3C-His; also called CENP-C cupin domain; source: E. coli Rosetta (DE3), purified (HisTrap, SEC); not shown: His, N-terminal, kept
B5: CAL1(841-979) (domain or fragment, Drosophila melanogaster, UniProt Q9VEN2 841-979, looked up)
chain: GGDPDCTVVTSTTGCEPPASERQEIPATIKITKRGILLHSPSAPEGASFTLTEQGLGKIIGERWARKYLKYHIGSRSFDSRHSVYYQPTPQLAAALSAPQDAQNIGNISGSSASDDDIFEQINRYGTVYSILENNSGDK
notes: only residues 890-913 are seen in the structure; source: E. coli BL21 (DE3) Gold, purified; not shown: His6, N-terminal, cleaved; SUMO, N-terminal, cleaved
B6: His-CAL1(1-160) F43R (domain or fragment)
chain: MANAVVDEETLEAMVYERSKAWSSKMADFASLEDGMEIDVAERDNLFHGEDEDPDLDDVAKEAVEDNVPDEAKLEMGHINATSVTELTLILCANEDNEAKAEIEEILNQTVPVVEEHKRKWREAGLDRILDTFDEKQIEHHVGRWMRRHNSVYLEASPPK
notes: CAL1, Drosophila melanogaster, residues 1-160, codon optimised; source: E. coli, recombinant, purified; not shown: His, N-terminal, kept
B7: CENP-A(101-225) (domain or fragment, Drosophila melanogaster, UniProt Q9V6Q2 101-225, looked up)
chain: QQESKTRAAGPVAAQNQTRRRKAANPMSRAKRMDREIRRLQHHPGTLIPKLPFSRLVREFIVKYSDDEPLRVTEGALLAMQESCEMYLTQRLADSYMLTKHRNRVTLEVRDMALMAYICDRGRQF
notes: also called CID; histone fold domain of CENP-A
B8: His-CAL1(1-160-LL-841-979) (domain or fragment, Drosophila melanogaster)
chain: MANAVVDEETLEAMVYERSKAWSSKMADFASLEDGMEIDVAEFDNLFHGEDEDPDLDDVAKEAVEDNVPDEAKLEMGHINATSVTELTLILCANEDNEAKAEIEEILNQTVPVVEEHKRKWREAGLDRILDTFDEKQIEHHVGRWMRRHNSVYLEASPPKGSSGGSSGGGDPDCTVVTSTTGCEPPASERQEIPATIKITKRGILLHSPSAPEGASFTLTEQGLGKIIGERWARKYLKYHIGSRSFDSRHSVYYQPTPQLAAALSAPQDAQNIGNISGSSASDDDIFEQINRYGTVYSILENNSGDK
notes: CAL1, Drosophila melanogaster, residues 1-160; flexible linker (LL) in place of residues 161-840; not shown: His, N-terminal, kept

How the values were obtained:
His-CAL1(1-160) [1] = biological target: T1, His-CAL1(1-160) (Drosophila melanogaster, UniProt Q9VEN2 1-160); assay: crystal structure; crystal form II; complex in 20 mM Tris-HCl pH 8.0, 1 M NaCl, 2 mM DTT; lithium sulphate, 0.1 M Tris pH 8.5, PEG 4000; anisotropic diffraction; details: both partners purified
T1 construct: CAL1, Drosophila melanogaster, residues 1-160; In crystal form I only CAL1 residues 17-47 were seen; the authors conclude that CAL1 was proteolytically cleaved during crystallisation; also called His-CAL1(1-160 WT); source: E. coli BL21 (DE3) Gold, purified (HisTrap native or Ni-NTA denaturing; SEC); not shown: His, N-terminal, kept
T1 sequence (looked up): B6 chain with R43F

H4 [2] = biological target: T2, H4 (Drosophila melanogaster, UniProt P84040 1-103); assay: as above; details: both partners purified
T2 construct: histone H4, Drosophila melanogaster (dm H4); plasmid pET22b H4, gift of Karolin Luger; also called histone H4; dm H4

[3] = biological target: T3, CENP-A-GFP-LacI (in U2OS cells) (Drosophila melanogaster, UniProt Q9V6Q2 1-225); assay: LacO/LacI tethering assay (recruitment seen by immunofluorescence); human U2OS cells with a LacO array; GFP-LacI fusion tethered, recruitment of co-transfected CAL1-V5 measured at the LacO spot; details: partners not purified
T3 construct: CENP-A (CID), Drosophila melanogaster; source: U2OS cells with a LacO array, transfected (pN2-CMV vector), in cells; not shown: GFP, C-terminal, kept; LacI, C-terminal, kept
T3 sequence (looked up): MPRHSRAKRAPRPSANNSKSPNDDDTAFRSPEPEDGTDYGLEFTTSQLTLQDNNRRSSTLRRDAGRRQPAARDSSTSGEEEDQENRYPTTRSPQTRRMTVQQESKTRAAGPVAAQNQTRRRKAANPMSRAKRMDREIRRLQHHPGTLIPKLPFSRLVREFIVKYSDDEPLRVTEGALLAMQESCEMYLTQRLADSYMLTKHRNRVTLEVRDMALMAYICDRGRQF

[4] = biological target: the molecule itself; assay: SEC-MALS; Superdex 75 increase 10/300 GL, 50 mM HEPES pH 8.0, 100 mM NaCl, 1 mM TCEP, 4°C
[5] = biological target: T4, His-CAL1(1-160-LL-841-979)/CENP-A(101-225)/H4 (Drosophila melanogaster, UniProt Q9VEN2 1-160; Q9VEN2 841-979; Q9V6Q2 101-225; P84040 1-103); assay: SEC; refolded His-CAL1(1-160-LL-841-979)/CENP-A(101-225)/H4 alone or mixed with 1.2 molar excess of His-CENP-C(1264-1411); Superdex 200 increase 10/300, 20 mM Tris-HCl pH 8.0, 100 mM NaCl, 2 mM DTT; details: both partners purified
T4 construct: CAL1, Drosophila melanogaster, residues 1-160; flexible linker (LL) in place of residues 161-840; histone H4, Drosophila melanogaster (dm H4); plasmid pET22b H4; not shown: His, N-terminal, kept; copies: + +

CENP-C(1264-1411) = biological target: B3; assay: AUC; sedimentation velocity (49 k rpm) and sedimentation equilibrium (26 k rpm), 4°C; untagged proteins and SEC purified untagged complex; a range of concentrations, up to 10 mg/ml; details: both partners purified
CENP-A(101-225)-H4 [6] = biological target: T5, CENP-A(101-225)-H4 (Drosophila melanogaster, UniProt Q9V6Q2 101-225; P84040 1-103); assay: pull-down; His-CAL1(1-160) WT or mutant mixed with 1.3 times molar excess of CENP-A(101-225)-H4 and captured on Ni-NTA resin; 20 mM Tris-HCl pH 8.0, 2 M NaCl, 10% glycerol, 0.5% NP40, 35 mM imidazole, 2 mM βME, 30 min at 4°C; Coomassie-stained SDS-PAGE; details: both partners purified
T5 construct: histone H4, Drosophila melanogaster (dm H4); plasmid pET22b H4, gift of Karolin Luger; also called CENP-A/H4; CENP-A/H4 complex

His-CAL1(1-160) [7] = biological target: T1, His-CAL1(1-160); assay: cross-linking; gel-filtered complex dialysed into PBS; EDC/sulpho-NHS 1.5 h or BS3 2 h at RT; gel bands digested with trypsin, LC-MS/MS; details: both partners purified
H4 [8] = biological target: T2, H4; assay: crystal structure; crystal form I; complex at 27 mg/ml in 20 mM Tris-HCl pH 8.0, 1 M NaCl, 5 mM DTT; 0.01 M cobalt(II) chloride, 0.1 M MES pH 6.5, 1.8 M ammonium sulphate, 18°C; crystals after about a year; details: both partners purified
His-CENP-C(1264-1411) = biological target: B4; assay: SEC; refolded His-CAL1(1-160-LL-841-979)/CENP-A(101-225)/H4 alone or mixed with 1.2 molar excess of His-CENP-C(1264-1411); Superdex 200 increase 10/300, 20 mM Tris-HCl pH 8.0, 100 mM NaCl, 2 mM DTT; details: both partners purified
CENP-A(101-225)-H4 [9] = biological target: T5, CENP-A(101-225)-H4; assay: as above; details: both partners purified

## B1
His-CAL1(1-160) [1]
  binding result: binds
H4 [2]
  binding result: binds

## B2
[3]
  fold change of recruitment against CAL1 WT: 3 fold less than CAL1 WT

## B3
[4]
  stoichiometry N: 2

## B4
[5]
  binding result: binds

## B5
CENP-C(1264-1411)
  stoichiometry N: 1 CAL1 per CENP-C dimer (2:1 CENP-C:CAL1)

## B6
CENP-A(101-225)-H4 [6]
  binding result: binds

## B7
His-CAL1(1-160) [7]
  binding result: binds
H4 [8]
  binding result: binds

## B8
His-CENP-C(1264-1411)
  binding result: binds
CENP-A(101-225)-H4 [9]
  binding result: binds
